Assay results reported in the nanobody polyreactivity screen of Harvey et al. (2022).

Assay: yeast display, Sf9 membrane polyspecificity reagent, FACS + sequencing; frameworks hold sequencing errors
Method in brief: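 Using colony PCR, genes from sorted yeast display clones were amplified, then sequenced on MiSeq at 2 × 250 and filtered by CDR length. The clones had been stained with 10% biotinylated, detergent-solubilized Sf9 membrane reagent for 1 hour at 4 °C and sorted by FACS into low and high (top ~1%) gates on anti-HA and streptavidin fluorescence. Polyreactivity labels come from the gate of origin.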

Row | Sequence | polyreactivity (PSR sort gate)
1 | QVHHEESGGGLFQAGGRLRLSCAASGYIFYDYSMGWYRQAPGKERELVAAISSGGSTNYADSVKGRFTISRDNAKNTVYLQMNSLIPEDTAVYYCASDDRSYATWKRDYDYWGQGTHVTVSS | low polyreactivity
2 | QVHHVESAGGLVQAGASLRLSSAASGSTIYRYAMGWYRQTPGKERELVARIDWSDGSTNYADSVKGRFTISRDNAKNTVYLQMNSLKPEDTGVYYCASDTYYDTYDGEYEYWGQGTQVTVSS | low polyreactivity
3 | QVHHVESGGGLVQAGGCLRLSCAASGFIVRENAMGWYRQAPGKERELVAAISKSGGRTYYADSVKGRFTISRDNAKNTVYLQMNSLKPEDTAVFYCAAYPSYTIHPAGDYWGQGTQVTVSS | high polyreactivity
4 | QVHHVESGGGLVQAGGILRLSCAASGFTIFKYAMGWSRQKPGKERELVATISIDGITNYADSVKGRFTISRDNAKNTVYLQMNILKPEDTAVYYCHALSLYQQLGYWGQGTQVTVSS | low polyreactivity
5 | QVHHVESGGGLVQAGGSLRLSCAASGGTFYYNAMGWYRQAPGKERELVAAIDGSGGTTYYADSVKGRFTISRDNAKNTVYLQMNSLKPEDTAVYYCAAAGSPSVYGYGYWGQGTQVTVSS | low polyreactivity
6 | QVHHVESGGGLVQAGGSLRLSCAASGSTIDEYAMGWYRQAPGKERELVAAIDWSTGSTYYADSVKGRFTISRDNAKNTVYLQMNSLKPEDTAVYYCAADSGYGPYYYWGQGTQVTVSS | high polyreactivity
7 | QVHHVESGGVLVKAGGSLRLSCAASGRTIYAYAMGWYRQAPGQESELVAAITSGASTYYADSVKGRFTISRDNAKNTVYLQMNSLKPEDTGVYYCAKRVRYYKPGYDYWGLGTQVTVSS | low polyreactivity
8 | QVHIVESGGGLVQAAGSLRLSCAASGSTLAIYDMGWYRQAPGKERELVAAISGGGSTYADSVKGRFTISPDNAKNTVYLHMNSLKTEDTAVYYFNADGWGDLFWSNFRFDYWVQGTQVTVSS | low polyreactivity
9 | QVHIVESGGGLVQAGGRLRLSCADSGTTFSYYTMGWYRQSPGKERELVAAISTSGGSTYYADSVKGRFTISRDNAKNTVYLQMNSLKPEDTAVYYCDARYGRYYKYNYWGQGTQVTVSS | high polyreactivity
10 | QVHIVESGGGLVQAGGSLRLSCAASGLIFYLYTRGWSRQATGKERELVAAISRSGTITYYADSVKGRFTISRDNAKNTVYLQMNSLKPEDTAVYYCAATYTYIIGTRYDYWGQGTQVTVSS | high polyreactivity
11 | QVHLEESGAGLVQAGGSLRISCAASGFIFDYYAMGWYRQAPGKERELVATITSRGGSTYYADSVKGRFTISRDNAKNTVSLQMNRLKPDYNGVYYCAAVSHPGRKYYYWGQGTQVTVSS | high polyreactivity
12 | QVHLEESGGGLVQAGGSLRLSCAASGFTFGPYAMGWYRQAPGKERELDATIRSGDSTNYADSVKGRFTISRDNAKNTVYLQMNSLKPEDTAVYYCARDARASARRKRYDYWGQGTQVTVSS | low polyreactivity
13 | QVHLEESGGGLVQAGRSLRLTCAASGRTFLWYAMGSYRQAPGKETDLVAAIRRSGGGTYYADSVKGRFTISRDNAKNSVYLQMNRLKPEDSGFFYCNSDYRGYQRGVISDGFYYWGLGTQVTVSS | low polyreactivity
14 | QVHLGQSGGGLVQAGGSLRLSCAASAITFRGNAMGWYRQAPGKERDLVAVITKGGVSTYYADSVKGRFTISRDNAKNTVYLQMNSLKPEVTAVYYCAKYWSWRSVKDYYWGLGTQVTVSS | high polyreactivity
15 | QVHLLESGGGLVQAGGSLRLSCAASGRTFIRNAMGWYRQAPGKERELVASIRWSGGSTYYADSVKGRFTISRDNAKNTVYLQMNSLKPEDTAVYYCARRKQSFGSWPPSEPVADDYWGQGTQVTVSS | low polyreactivity
16 | QVHLQESGAGLVQVGGSQRLSCAASGNIFYNYAMGWSRHAQGKEREFDATINHGTSINYADSVKGRFTISRDNAKNNVYLQMNCLKPEDTAVYYCAADLSWTDNLFYWGQGTQVSVSS | low polyreactivity
17 | QVHLQESGGGLEQAGGSLSPSCAASGSISNGVPMGWYRQAPGEERELVATTVLGATTNYADSVKGRFTISRGNAKNPVYLQMNSLKPEETAVYYCAAPLRYDKGFSYWGQGTQVTVSS | low polyreactivity
18 | QVHLQESGGLVQAGGLRLSCAASGSVSYQEAMGWYPQAPGKERELVATISFGANTNYADSVKGRFTISRDNAKNTVYLQRNCLKPEDTAVYYCAAESLFDDYYGYWGQGTQVTVSS | low polyreactivity
19 | QVHLVDSGGGIVQAGGSLRLSCAATGRISGVYAMVWYRQAPGKERELVAAISWSGGRTYYADSVKGRFTISRDNAKNTVYLQMNSLKPEDTAVYYCNADTGFRSYRRDYWGQGTQVTVSS | low polyreactivity
20 | QVHLVDSGGGLVQAGGILRLSCSDYGSTFALYAMGWYRQSPGKVSELVAPITTSGGNTYYADSVKGRFTISRDNAKNTVYLQMNSLKPEDTAVYYCAADPWWSYTSYLRYYNLEMNYWGQGTQVTVSS | high polyreactivity
21 | QVHLVDSGGGLVQAGGSLRLSCAASGFIFWSYAMGWYRQAPGKERELVAAISFRGGSTFYADSVKGRFTISRDNAKNTVYLQMNSLKPEDTAVYYCAVGVYPSYRGPTFSTRRDYWGQGTQVTVSS | low polyreactivity
22 | QVHLVDSGGGLVQAGGSLRLSCAASGFTFDYYAMGWYRQAPGKERELVAAITSDGSTYYADSVKGRFTISRDNAKNTVYLQMNSLKPEDTAVYYCAADGISLYATAYDYWGQGTQVTVSS | low polyreactivity

Row | Sequence | polyreactivity (PSR sort gate)
23 | QVHLVDSGGGLVQAGGSLRLSCAASGSISYDNAMGWYRQAPGKERELVAAITFSGDSTNYADSVKGRFTISRDNAKNTVYLQMNSLKPEDTAVYYCAASQVSDTTRFGYWGQGTQVTVSS | low polyreactivity
24 | QVHLVDSGGGLVQAGGSLRLSCAASGSTFYYYVMGWYRQAPGKERELVAAISSGGHPNYADSVKGRFTISRDNAKNTVYLEMNSLKPEDTAVYYCAAKARRGTLLRYGYWGQGTQVTVSS | high polyreactivity
25 | QVHLVDSGGGLVQAGGSLRLSCAASGYTFIAYTMGWYRQAPGKERELVAAITTGGRTYYADSVKGRFTISRDNAKNTVYLQMNSLKPEDTAVYYCAAYYSARYKYGGVDYWGQGTQVTVSS | high polyreactivity
26 | QVHLVDSGGGLVQARGSLRLSCAASGFTIGPYAMGWYRQAPGKERELVAAITIRGGSTYADSVKGRFTISRDNAKNTVYLQMNSLKPEDTAVYYCATVRALEYNYWGQGTQVTVSS | low polyreactivity
27 | QVHLVEAGGGLVQAGGSRRLSCAASGGIFTDYTMGWYRQAPGKETELVAAITWTGGSTYYADSVKGRFTISRDNAKNTVYLQMNSLKPEDTAVYDCAADDYWVNLDYWGQGTQVTVSS | low polyreactivity
28 | QVHLVESAGGLVQAGGSLSLSCAASAITLYFNAMGWYRQAPGKEREWVAAISWSGDSTYYADSVKGRFTISRDNAKNTVYLQMNSLKPEDTAVYYCAADRYTYYHYAWYEYWGQGTQVTVSS | low polyreactivity
29 | QVHLVESGAGLDQAGVRLRLSCAPSGTTFDYNTMGWYRQAPGKERELVASINNSGGSTYYADSVKGRFTISRDNAKNTVYLQMISLKPVDTAVYYCAAVSYRRHFGPYNYWGQGTQVTVSS | low polyreactivity
30 | QVHLVESGAGLVQAGGSLRLSCPASGSIFFLYPMGWYRQAPGKESELVAAITWRVGSTYYADSVKGRFTISRDNAKNTVYLQMNSLKPEDTAVYYCAAYFLGFQVRYDYWGQGTQVTVSS | high polyreactivity
31 | QVHLVESGGALVQAGGSLPLSFSASGSIFTYYAMGWYRQQPGKERELVAAINSGGRTNYADSVKGRFTISRDNAKNTVYLQMNSLKPEDTAVYYCAKYGVLQYGYWGQGTQVTVSS | low polyreactivity
32 | QVHLVESGGALVQAGGSLRLSCAASGFIFNHYAMGWYRQAPGKEQEFVAAISWSGGSTYYADSVKGRFTISRDNAKITVYLQMNSLKPEDTAVYYCAAAVWYRGWYRYDYWGQGTQVTVSS | low polyreactivity
33 | QVHLVESGGCLVQAGGSLRLSCAASGYIIGINAMACYRQAPRKESELVPAISRSGGSTYYAESVKGRFTISRDNAKNTVYLQMNSLKPEDTAVYYCASDILRFYSDTYGTEYWGQGTQVTVSS | high polyreactivity
34 | QVHLVESGGCLVQAGGSLRLSCSASRSIFPNNDMGWYRQQPGKERELVPAITTRGTSTYYAESVKGRFTISRDYAKNTVYLQMKSLKPEDTAVYFCAVGRRGYSAGGVAYYYWGQGTQVTVSS | low polyreactivity
35 | QVHLVESGGGFVQAGGSLRLICAASGITFGIYVMGWSRQAPGKERELVATISRSDDNSYYADSVKGRFTISRDNAKNTVYLQMNSLKPEDTAVYYCAADGVISAWYSSRDDYWGQGTQVTVSS | low polyreactivity
36 | QVHLVESGGGFVQAGGSLRVSCAASRRIYNLNAMGWYRQAPGKERELVAAISKSGTRTYYADSVKGRFTISRDNAKNTVYLPMNSLKPEDTAVYSCAARRSSVTQSTTYPAVRQRYGYWGQGTQVTVSS | high polyreactivity
37 | QVHLVESGGGIDQAGGSLRLSCAASGSIFRNYAMAWKRQAPGKERELVAFITRGGSTYYADSVKVRFTISRDNAKNTVYFQMNSLKPEHTAVYYCAADFWPAGLDLGYWGQGTQVTLSS | low polyreactivity
38 | QVHLVESGGGIVQAGGSLRLSCAASGRTFGVNAMGWYRQAPGQEMELVAAISYSGASTFYADSLKGRFTISRDKAKNNVYLQMNSLKPEDTAVYYCAKRVVRYGKRMGYWGQGTQVTVSS | high polyreactivity
39 | QVHLVESGGGLDQAGGSLRLSCAASGIIFFKNAMGWYRPAPGKERELVAAISSTDTRTYYADSVKGRFTISRDNAKNTVYLQKNSLKPEDTAVYYCAADYIYYYEQYLWYTYDYWGQGTQVTLSS | high polyreactivity
40 | QVHLVESGGGLLQAGGSLRLSCAASGSTFSINGMGWYRQAPGKERELVAAITWRGTRTYYADSVKGRFTISRDNAKNTVYLEMNSLKPEVTAVYYCAATGSGEASFYYWGQGTQVTVSS | high polyreactivity
41 | QVHLVESGGGLVHAGGSLRLSCAASGSIFPYYAMGWYRQAPGKETELVAAISRSGGSTYYADSVKGRFTISRDYAKNTVYLQMNSLKPDDTAVYYCAADYARYVRKTRYGSWGKGTQVTVSS | high polyreactivity
42 | QVHLVESGGGLVKAGGSLRISCAASGRTFVCYAMGCYRPAPGKERELVAAISSGGSTNYADSVKGRFTISRDNAKNTVYLLMICLKPEDTAVYYCNRRSYQRGWHWARGRYGFWGQGTQVTVSS | high polyreactivity
43 | QVHLVESGGGLVKAGGSLRLSCAASGITFGSYAMGWYRQAPGKERELVAAIDTSGDDTYYADSVKGRFTISRDNAKNTVYLQMNSLKPEDTAVYYCAADFPSAEVDYWGQGTQVTVSS | low polyreactivity
